The values that follow come from doi:10.1101/459156.

The target of the assay is Hexahistidine-tagged ALIX protein (UniProt Q8WUM4). The assay can be described thus: MST.
Sequence of UniProt Q8WUM4 (Q8WUM4 whole entry): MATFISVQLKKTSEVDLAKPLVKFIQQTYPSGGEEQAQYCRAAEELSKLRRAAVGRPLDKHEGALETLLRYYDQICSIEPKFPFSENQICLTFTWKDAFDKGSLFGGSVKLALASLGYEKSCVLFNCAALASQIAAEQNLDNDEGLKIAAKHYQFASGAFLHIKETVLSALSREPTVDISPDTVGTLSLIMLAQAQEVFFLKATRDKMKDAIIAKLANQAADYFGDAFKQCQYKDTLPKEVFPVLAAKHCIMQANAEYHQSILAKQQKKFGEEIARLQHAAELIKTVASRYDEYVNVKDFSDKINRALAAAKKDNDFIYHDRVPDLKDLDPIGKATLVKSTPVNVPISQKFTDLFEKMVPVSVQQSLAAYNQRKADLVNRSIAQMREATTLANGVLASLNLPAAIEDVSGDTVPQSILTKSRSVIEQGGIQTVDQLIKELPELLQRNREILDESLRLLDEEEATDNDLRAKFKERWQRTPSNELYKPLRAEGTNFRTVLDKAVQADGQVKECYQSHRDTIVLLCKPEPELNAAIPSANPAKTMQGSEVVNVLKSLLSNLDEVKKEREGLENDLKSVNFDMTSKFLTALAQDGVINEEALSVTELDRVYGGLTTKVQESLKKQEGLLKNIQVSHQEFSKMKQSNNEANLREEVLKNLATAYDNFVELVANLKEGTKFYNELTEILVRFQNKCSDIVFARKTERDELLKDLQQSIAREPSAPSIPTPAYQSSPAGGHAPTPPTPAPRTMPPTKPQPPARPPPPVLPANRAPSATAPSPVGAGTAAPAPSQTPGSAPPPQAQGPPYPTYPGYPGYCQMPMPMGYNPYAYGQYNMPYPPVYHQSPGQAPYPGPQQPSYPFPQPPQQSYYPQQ

With HIV-1BWT Gag late domain motif peptide, the Kd (as a rule, a measure of binding affinity in units of concentration) was determined as 32 nM.
As for HIV-1CWT Gag late domain motif peptide, the dissociation constant (Kd) was 290 nM. Compared with the last substance, the Kd is about 9.1-fold higher.
